Measurements taken from article PMC6645366.

Tests used:
PUM2 RNA-binding domain [1] = molecular target: T1, PUM2 RNA-binding domain (Homo sapiens, UniProt Q8TB72 706-1059); assay: competition EMSA
PUM2 RNA-binding domain [2] = molecular target: T1, PUM2 RNA-binding domain; assay: EMSA
PUM2 RNA-binding domain [3] = molecular target: T1, PUM2 RNA-binding domain; assay: EMSA; remark: listed apart in the source

T1 sequence (Q8TB72 706-1059): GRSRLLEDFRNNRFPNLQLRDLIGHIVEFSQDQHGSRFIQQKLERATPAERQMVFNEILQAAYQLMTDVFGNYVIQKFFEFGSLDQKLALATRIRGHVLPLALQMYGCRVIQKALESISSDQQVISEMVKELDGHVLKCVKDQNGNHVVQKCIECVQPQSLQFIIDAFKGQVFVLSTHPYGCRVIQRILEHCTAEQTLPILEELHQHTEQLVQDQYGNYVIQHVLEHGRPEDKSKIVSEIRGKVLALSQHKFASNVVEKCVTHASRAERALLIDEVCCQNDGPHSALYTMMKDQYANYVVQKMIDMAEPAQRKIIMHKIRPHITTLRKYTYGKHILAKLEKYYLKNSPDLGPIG

Binder | binding result (PUM2 RNA-binding domain [1]) | further results
UGUAUAUA (ssRNA) [8-mer consensus] | binds | –
UCUCUUUGUAUAUAUCUCUU (ssRNA) [S1a RNA] | – | binding result (PUM2 RNA-binding domain [2]): binds
CUUGUAUAUAG (ssRNA) | – | binding result (PUM2 RNA-binding domain [3]): binds
UGUAUAGA (ssRNA) [8-mer 7G] | binds | –
UGUAGAUA (ssRNA) [8-mer 5G] | binds | –
